Data: PMC5063714 (Journal of medicinal chemistry, 2016)
Where two headings read alike, the source gives them in different places. Values belong to the binder of their own block, whether it stands above or below them. Square brackets hold non-standard residues; d marks the D form. Side chains are listed from the residue outwards. Ends that are not written are not given here. * marks the point of attachment. pyrrolidinyl = lysine with its side-chain amine cyclized into a pyrrolidine ring; azepanyl = lysine epsilon-N closed into a 7-membered azepane ring; piperidinyl = lysine epsilon-N closed into a piperidine ring; Lys(Me3) = C[N+](C)(C)CCCC[C@H](N)C(=O)O; NMeF = CN[C@@H](Cc1ccccc1)C(=O)O; dicyclobutyl = not defined here; diethyl = not defined here; Cyclopentyl = C1CCC(*)C1; cyclohexyl = C1CCC(*)CC1; Bz = O=C(c1ccccc1)*; iPr = CC(C)*

Legend:
Assay in all cases: AlphaScreen or HTRF
chromodomain of CBX5 [1] = target: chromodomain of CBX5 (human)
chromodomain of CDYL2 [2] = target: T1, chromodomain of CDYL2 (human, UniProt Q8N8U2 1-75)
T1 sequence (looked up): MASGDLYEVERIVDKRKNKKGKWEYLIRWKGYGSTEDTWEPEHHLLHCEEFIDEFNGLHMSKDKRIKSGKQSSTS

chromodomain of CBX7 [3] = target: T2, chromodomain of CBX7 (human, UniProt O95931 8-62)
T2 sequence (looked up): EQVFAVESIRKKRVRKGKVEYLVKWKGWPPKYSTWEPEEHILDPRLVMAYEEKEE

chromodomain of CBX4 [4] = target: T3, chromodomain of CBX4 (human, UniProt O00257-1 8-65)
T3 sequence (looked up): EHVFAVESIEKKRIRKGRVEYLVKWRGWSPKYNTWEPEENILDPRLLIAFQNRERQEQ

chromodomain of CBX5 [5] = target: chromodomain of CBX5 (human); remark: listed apart in the source
chromodomain of CBX5 [6] = target: chromodomain of CBX5 (human); remark: listed apart in the source
chromodomain of CDYL2 [7] = target: T1, chromodomain of CDYL2; remark: listed apart in the source
chromodomain of CBX7 [8] = target: T2, chromodomain of CBX7; remark: listed apart in the source
chromodomain of CBX4 [9] = target: T3, chromodomain of CBX4; remark: listed apart in the source
chromodomain of CBX5 [10] = target: chromodomain of CBX5 (human); remark: listed apart in the source

chromodomain of CBX5 (human), sequence (Q9UN86 18-75): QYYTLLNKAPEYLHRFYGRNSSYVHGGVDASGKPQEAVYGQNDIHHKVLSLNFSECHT

IC50 (chromodomain of CBX5 [1]): > 60000 nM
Binder: Bz-G[NMeF]AL[Lys(Me3)]S-OMe [compound 9]

IC50 (chromodomain of CDYL2 [2]): 410 nM
IC50 (chromodomain of CBX7 [3]): 75 nM
IC50 (chromodomain of CBX4 [4]): 200 nM
IC50 (chromodomain of CBX5 [5]): > 60000 nM
Binder: {4‑tBu‑Bz}-FALK(diethyl)S (reading uncertain; also: C-terminal carbonyl removed entirely (R3 = -H)) [compound 46]

IC50 (chromodomain of CBX5 [1]): > 60000 nM
B1: compound 10 (peptide)
peptide: GFALKS
modifications: N-terminal benzoyl (Bz) cap; N-methylated glycine amide (N(me)Gly); trimethyl-lysine (Kme3); C-terminal methyl ester (Ser-OMe)

IC50 (chromodomain of CDYL2 [2]): 360 nM
IC50 (chromodomain of CBX7 [3]): 47 nM
IC50 (chromodomain of CBX4 [4]): 140 nM
IC50 (chromodomain of CBX5 [5]): > 60000 nM
Binder: {4‑tBu‑Bz}-FALK(diethyl)S-NMe2 (reading uncertain) [compound 45]

IC50 (chromodomain of CBX5 [6]): > 60000 nM
IC50 (chromodomain of CDYL2 [7]): 560 nM
IC50 (chromodomain of CBX7 [8]): 25000 nM
IC50 (chromodomain of CBX4 [9]): 58000 nM
Binder: {2‑Me‑Bz}-FALK(diethyl)S-OMe (reading uncertain) [compound 28]

IC50 (chromodomain of CBX5 [10]): > 60000 nM
Binder: Bz-GFALK(pyrrolidinyl)S-OMe [compound 19]

IC50 (chromodomain of CBX5 [10]): > 60000 nM
Binder: Bz-GFALK(adamantyl)S-OMe [compound 16]

IC50 (chromodomain of CBX5 [6]): 33000 nM
IC50 (chromodomain of CDYL2 [7]): 130 nM
IC50 (chromodomain of CBX7 [8]): 230 nM
IC50 (chromodomain of CBX4 [9]): 480 nM
Binder: {4‑CF3‑Bz}-FALK(diethyl)S-OMe (reading uncertain) [compound 34]

IC50 (chromodomain of CBX5 [6]): > 60000 nM
IC50 (chromodomain of CDYL2 [7]): 110 nM
Binder: {4‑tBu‑Bz}-FAL[Lys(Me3)]S-OMe [compound 39]

IC50 (chromodomain of CBX5 [1]): > 60000 nM
Binder: Bz-GFAL[Lys(Me3)]S-OMe [compound 6]

IC50 (chromodomain of CBX5 [10]): > 60000 nM
Binder: Bz-GFALK(dicyclobutyl)S-OMe (reading uncertain) [compound 22]

IC50 (chromodomain of CBX5 [6]): 6900 nM
IC50 (chromodomain of CDYL2 [7]): 340 nM
IC50 (chromodomain of CBX7 [8]): 1200 nM
IC50 (chromodomain of CBX4 [9]): 3000 nM
Binder: Bz-FALK(diethyl)S-OMe (reading uncertain) [compound 27]

IC50 (chromodomain of CBX5 [6]): > 60000 nM
IC50 (chromodomain of CDYL2 [7]): 140 nM
IC50 (chromodomain of CBX7 [8]): 37 nM
IC50 (chromodomain of CBX4 [9]): 83 nM
B2: compound 1 (UNC3866) (peptide)
peptide: FALKS
modifications: N-terminal para-t-butyl benzoyl cap; diethyl-lysine in lieu of Kme3; C-terminal methyl ester

IC50 (chromodomain of CBX5 [1]): > 60000 nM
B3: compound 3 (peptide)
peptide: Bz-Ala-Leu-[Lys(Me3)]-NHMe
SMILES: CNC(=O)[C@H](CCCC[N+](C)(C)C)NC(=O)[C@H](CC(C)C)NC(=O)[C@H](C)NC(=O)c1ccccc1

IC50 (chromodomain of CBX5 [10]): > 60000 nM
Binder: Bz-GFALK(piperidinyl)S-OMe [compound 20]

IC50 (chromodomain of CBX5 [6]): 21000 nM
IC50 (chromodomain of CDYL2 [7]): 280 nM
IC50 (chromodomain of CBX7 [8]): 220 nM
IC50 (chromodomain of CBX4 [9]): 770 nM
Binder: {4‑Me‑Bz}-FALK(diethyl)S-OMe (reading uncertain) [compound 30]

IC50 (chromodomain of CBX5 [6]): > 60000 nM
IC50 (chromodomain of CDYL2 [7]): 200 nM
IC50 (chromodomain of CBX7 [8]): 4400 nM
IC50 (chromodomain of CBX4 [9]): 9700 nM
Binder: {t‑butylbenzyl}-FALK(diethyl)S-OMe (reading uncertain) [compound 36]

IC50 (chromodomain of CDYL2 [2]): 740 nM
IC50 (chromodomain of CBX7 [3]): 130 nM
IC50 (chromodomain of CBX4 [4]): 240 nM
IC50 (chromodomain of CBX5 [5]): > 60000 nM
Binder: {4‑tBu‑Bz}-FALK(diethyl)S-OH (reading uncertain) [compound 44]

IC50 (chromodomain of CBX5 [10]): > 60000 nM
Binder: Bz-GFALK(diethyl)S-OMe (reading uncertain) [compound 18]

IC50 (chromodomain of CBX5 [6]): 26000 nM
IC50 (chromodomain of CDYL2 [7]): 110 nM
IC50 (chromodomain of CBX7 [8]): 570 nM
IC50 (chromodomain of CBX4 [9]): 1200 nM
Binder: {4‑CO2Me‑Bz}-FALK(diethyl)S-OMe (reading uncertain) [compound 33]

IC50 (chromodomain of CBX5 [10]): > 60000 nM
Binder: Bz-GFALK(azepanyl)S-OMe [compound 21]

IC50 (chromodomain of CBX5 [10]): > 60000 nM
Binder: Bz-GFALK(cyclohexyl)S-OMe [compound 14]

IC50 (chromodomain of CBX5 [10]): > 60000 nM
Binder: Bz-GFALK(iPr)S-OMe [compound 12]

IC50 (chromodomain of CBX5 [6]): > 60000 nM
IC50 (chromodomain of CDYL2 [7]): 340 nM
IC50 (chromodomain of CBX7 [8]): 740 nM
IC50 (chromodomain of CBX4 [9]): 2700 nM
Binder: {3‑Me‑Bz}-FALK(diethyl)S-OMe (reading uncertain) [compound 29]

IC50 (chromodomain of CBX5 [10]): > 60000 nM
Binder: Bz-GFALKS-OMe [compound 11]

IC50 (chromodomain of CBX5 [1]): > 60000 nM
Binder: Bz-GFALKS-OMe (not fully specified (residues 3, 5)) [compound 8]

IC50 (chromodomain of CDYL2 [2]): 160 nM
IC50 (chromodomain of CBX7 [3]): 56 nM
IC50 (chromodomain of CBX4 [4]): 98 nM
IC50 (chromodomain of CBX5 [5]): 44000 nM
Binder: {4‑tBu‑Bz}-F(CH2NHBoc)ALK(diethyl)S-OMe (reading uncertain) [compound 48]

IC50 (chromodomain of CBX5 [6]): 38000 nM
IC50 (chromodomain of CDYL2 [7]): 100 nM
IC50 (chromodomain of CBX7 [8]): 61 nM
IC50 (chromodomain of CBX4 [9]): 160 nM
Binder: {4‑iPr‑Bz}-FALK(diethyl)S-OMe (reading uncertain) [compound 32]

IC50 (chromodomain of CBX5 [6]): 14000 nM
IC50 (chromodomain of CDYL2 [7]): 100 nM
IC50 (chromodomain of CBX7 [8]): 81 nM
IC50 (chromodomain of CBX4 [9]): 190 nM
Binder: {4‑Et‑Bz}-FALK(diethyl)S-OMe (reading uncertain) [compound 31]

IC50 (chromodomain of CBX5 [10]): > 60000 nM
Binder: Bz-GFALK(tetramethylguanidino)S-OMe [compound 24]

IC50 (chromodomain of CBX5 [10]): > 60000 nM
Binder: Bz-GFALK(dimethyl)S-OMe [compound 17]

IC50 (chromodomain of CBX5 [10]): > 60000 nM
Binder: Bz-GFALK(Cyclopentyl)S-OMe [compound 13]

IC50 (chromodomain of CBX5 [10]): > 60000 nM
Binder: Bz-GFALK([norbornyl-Ac])S-OMe [compound 23]

IC50 (chromodomain of CBX5 [10]): > 60000 nM
Binder: Bz-GFALK(norbornyl)S-OMe [compound 15]

IC50 (chromodomain of CDYL2 [2]): 75 nM
IC50 (chromodomain of CBX7 [3]): 63 nM
IC50 (chromodomain of CBX4 [4]): 170 nM
IC50 (chromodomain of CBX5 [5]): 53000 nM
Binder: {4‑tBu‑Bz}-F(CH2NH2)ALK(diethyl)S-OMe (reading uncertain) [compound 47]
